Measured values taken from patent US20250304643A1 (BAINAN BIOTECH, published 2025).
*1 amine or outer side, *2 acyl side, *3 side chain or, on linkers, in order; H or OH if unused. Where no end group is shown, it is not given here. Side-chain parts run from the residue outwards. [ ]: non-standard residue; d: D form. The star is where a group is joined. γGlu = O=C(O)[C@H](CCC(=O)[*:2])N[*:1]; HOOC(CH2)8CO = O=C(O)CCCCCCCCC(=O)*; Palmitoyl = CCCCCCCCCCCCCCCC(=O)*; Decanoyl = CCCCCCCCCC(=O)*; Aib = CC(C)(N)C(=O)O

T1: human glucose-dependent insulinotropic polypeptide receptor (human, UniProt P48546 22-466)
T1 sequence (looked up): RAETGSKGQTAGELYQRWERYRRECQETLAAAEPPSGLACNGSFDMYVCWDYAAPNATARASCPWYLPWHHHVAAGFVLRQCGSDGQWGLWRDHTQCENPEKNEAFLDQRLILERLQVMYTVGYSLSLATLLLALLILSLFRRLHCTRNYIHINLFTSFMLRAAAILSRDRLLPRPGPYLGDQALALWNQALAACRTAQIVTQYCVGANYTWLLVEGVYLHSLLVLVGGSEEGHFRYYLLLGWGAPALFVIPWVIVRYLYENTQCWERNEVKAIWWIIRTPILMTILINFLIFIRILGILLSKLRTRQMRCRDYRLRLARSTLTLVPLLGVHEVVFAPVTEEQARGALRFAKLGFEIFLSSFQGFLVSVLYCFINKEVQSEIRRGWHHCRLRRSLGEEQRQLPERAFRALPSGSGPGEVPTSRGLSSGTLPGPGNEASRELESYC


What follows are binders tested against T1, human glucose-dependent insulinotropic … (assay: cell-based or functional assay).

Binder | Efficacy GIPR [%] | EC50 (nM) GIPR [nM]
Decanoyl-HADGTFISDYSTILDNLAAKDFINWLIQTKITKNDWKHNITQ [Compound no. 3] | 76 | 
H-H[Aib]DGTFISDYSK([γGlu-Palmitoyl])ILDNLAARDFINWLIQTKITK-OH (SMILES CCCCCCCCCCCCCCCC(=O)N[C@@H](CCC(=O)NCCCC[C@H](NC(=O)[C@H](CO)NC(=O)[C@H](Cc1ccc(O)cc1)NC(=O)[C@H](CC(=O)O)NC(=O)[C@H](CO)NC(=O)[C@@H](NC(=O)[C@H](Cc1ccccc1)NC(=O)[C@@H](NC(=O)CNC(=O)[C@H](CC(=O)O)NC(=O)C(C)(C)NC(=O)[C@@H](N)Cc1c[nH]cn1)[C@@H](C)O)[C@@H](C)CC)C(=O)N[C@H](C(=O)N[C@@H](CC(C)C)C(=O)N[C@@H](CC(=O)O)C(=O)N[C@@H](CC(N)=O)C(=O)N[C@@H](CC(C)C)C(=O)N[C@@H](C)C(=O)N[C@@H](C)C(=O)N[C@@H](CCCNC(=N)N)C(=O)N[C@@H](CC(=O)O)C(=O)N[C@@H](Cc1ccccc1)C(=O)N[C@H](C(=O)N[C@@H](CC(N)=O)C(=O)N[C@@H](Cc1c[nH]c2ccccc12)C(=O)N[C@@H](CC(C)C)C(=O)N[C@H](C(=O)N[C@@H](CCC(N)=O)C(=O)N[C@H](C(=O)N[C@@H](CCCCN)C(=O)N[C@H](C(=O)N[C@H](C(=O)N[C@@H](CCCCN)C(=O)O)[C@@H](C)O)[C@@H](C)CC)[C@@H](C)O)[C@@H](C)CC)[C@@H](C)CC)[C@@H](C)CC)C(=O)O) [Compound no. 12] | 107 | 
Palmitoyl-H[Aib]DGTFISDYSTILDNLAARDFIEWLIQTKIT-OH (SMILES CCCCCCCCCCCCCCCC(=O)N[C@@H](Cc1c[nH]cn1)C(=O)NC(C)(C)C(=O)N[C@@H](CC(=O)O)C(=O)NCC(=O)N[C@H](C(=O)N[C@@H](Cc1ccccc1)C(=O)N[C@H](C(=O)N[C@@H](CO)C(=O)N[C@@H](CC(=O)O)C(=O)N[C@@H](Cc1ccc(O)cc1)C(=O)N[C@@H](CO)C(=O)N[C@H](C(=O)N[C@H](C(=O)N[C@@H](CC(C)C)C(=O)N[C@@H](CC(=O)O)C(=O)N[C@@H](CC(N)=O)C(=O)N[C@@H](CC(C)C)C(=O)N[C@@H](C)C(=O)N[C@@H](C)C(=O)N[C@@H](CCCNC(=N)N)C(=O)N[C@@H](CC(=O)O)C(=O)N[C@@H](Cc1ccccc1)C(=O)N[C@H](C(=O)N[C@@H](CCC(=O)O)C(=O)N[C@@H](Cc1c[nH]c2ccccc12)C(=O)N[C@@H](CC(C)C)C(=O)N[C@H](C(=O)N[C@@H](CCC(N)=O)C(=O)N[C@H](C(=O)N[C@@H](CCCCN)C(=O)N[C@H](C(=O)N[C@H](C(=O)O)[C@@H](C)O)[C@@H](C)CC)[C@@H](C)O)[C@@H](C)CC)[C@@H](C)CC)[C@@H](C)CC)[C@@H](C)O)[C@@H](C)CC)[C@@H](C)O) [Compound no. 8] | 108 | 
Palmitoyl-HADGTFISDYSTILDNLAARDFINWLIQTKITD [Compound no. 4] | 96 | 
Palmitoyl-H[Aib]DGTFISDYSTILDNLAARDFIEWLIQTKITK-OH (SMILES CCCCCCCCCCCCCCCC(=O)N[C@@H](Cc1c[nH]cn1)C(=O)NC(C)(C)C(=O)N[C@@H](CC(=O)O)C(=O)NCC(=O)N[C@H](C(=O)N[C@@H](Cc1ccccc1)C(=O)N[C@H](C(=O)N[C@@H](CO)C(=O)N[C@@H](CC(=O)O)C(=O)N[C@@H](Cc1ccc(O)cc1)C(=O)N[C@@H](CO)C(=O)N[C@H](C(=O)N[C@H](C(=O)N[C@@H](CC(C)C)C(=O)N[C@@H](CC(=O)O)C(=O)N[C@@H](CC(N)=O)C(=O)N[C@@H](CC(C)C)C(=O)N[C@@H](C)C(=O)N[C@@H](C)C(=O)N[C@@H](CCCNC(=N)N)C(=O)N[C@@H](CC(=O)O)C(=O)N[C@@H](Cc1ccccc1)C(=O)N[C@H](C(=O)N[C@@H](CCC(=O)O)C(=O)N[C@@H](Cc1c[nH]c2ccccc12)C(=O)N[C@@H](CC(C)C)C(=O)N[C@H](C(=O)N[C@@H](CCC(N)=O)C(=O)N[C@H](C(=O)N[C@@H](CCCCN)C(=O)N[C@H](C(=O)N[C@H](C(=O)N[C@@H](CCCCN)C(=O)O)[C@@H](C)O)[C@@H](C)CC)[C@@H](C)O)[C@@H](C)CC)[C@@H](C)CC)[C@@H](C)CC)[C@@H](C)O)[C@@H](C)CC)[C@@H](C)O) [Compound no. 7] | 114 | 
Palmitoyl-HADGTFISDYSTILDNLAARDFINWLIQTKITD [Compound no. 1] | 96 | 

The next lines start with the values.

Efficacy GIPR [%] | EC50 (nM) GIPR [nM] | Binder
91 |  | Palmitoyl-HADGTFISDYSTILDNLAAKDFINWLIQTKITK [Compound no. 45]
106 |  | H[Aib]DGTFISDYSK([γGlu-Palmitoyl])[Aib]LDNLAARDFINWLIQTKITK-OH (N-terminus assumed; SMILES CCCCCCCCCCCCCCCC(=O)N[C@@H](CCC(=O)NCCCC[C@H](NC(=O)[C@H](CO)NC(=O)[C@H](Cc1ccc(O)cc1)NC(=O)[C@H](CC(=O)O)NC(=O)[C@H](CO)NC(=O)[C@@H](NC(=O)[C@H](Cc1ccccc1)NC(=O)[C@@H](NC(=O)CNC(=O)[C@H](CC(=O)O)NC(=O)C(C)(C)NC(=O)[C@@H](N)Cc1c[nH]cn1)[C@@H](C)O)[C@@H](C)CC)C(=O)NC(C)(C)C(=O)N[C@@H](CC(C)C)C(=O)N[C@@H](CC(=O)O)C(=O)N[C@@H](CC(N)=O)C(=O)N[C@@H](CC(C)C)C(=O)N[C@@H](C)C(=O)N[C@@H](C)C(=O)N[C@@H](CCCNC(=N)N)C(=O)N[C@@H](CC(=O)O)C(=O)N[C@@H](Cc1ccccc1)C(=O)N[C@H](C(=O)N[C@@H](CC(N)=O)C(=O)N[C@@H](Cc1c[nH]c2ccccc12)C(=O)N[C@@H](CC(C)C)C(=O)N[C@H](C(=O)N[C@@H](CCC(N)=O)C(=O)N[C@H](C(=O)N[C@@H](CCCCN)C(=O)N[C@H](C(=O)N[C@H](C(=O)N[C@@H](CCCCN)C(=O)O)[C@@H](C)O)[C@@H](C)CC)[C@@H](C)O)[C@@H](C)CC)[C@@H](C)CC)C(=O)O) [Compound no. 35]
95 |  | H[Aib]DGTFISDYK([γGlu-Palmitoyl])T[Aib]LDNLAARDFINWLIQTKITKNDWKHNITQ-OH [Compound no. 37]
77 |  | {HOOC(CH2)8CO}-H[Aib]DGTFISDYST[Aib]LDNLAARDFINWLIQTKITK-OH (SMILES CC[C@H](C)[C@H](NC(=O)[C@H](Cc1ccccc1)NC(=O)[C@H](CC(=O)O)NC(=O)[C@H](CCCNC(=N)N)NC(=O)[C@H](C)NC(=O)[C@H](C)NC(=O)[C@H](CC(C)C)NC(=O)[C@H](CC(N)=O)NC(=O)[C@H](CC(=O)O)NC(=O)[C@H](CC(C)C)NC(=O)C(C)(C)NC(=O)[C@@H](NC(=O)[C@H](CO)NC(=O)[C@H](Cc1ccc(O)cc1)NC(=O)[C@H](CC(=O)O)NC(=O)[C@H](CO)NC(=O)[C@@H](NC(=O)[C@H](Cc1ccccc1)NC(=O)[C@@H](NC(=O)CNC(=O)[C@H](CC(=O)O)NC(=O)C(C)(C)NC(=O)[C@H](Cc1c[nH]cn1)NC(=O)CCCCCCCCC(=O)O)[C@@H](C)O)[C@@H](C)CC)[C@@H](C)O)C(=O)N[C@@H](CC(N)=O)C(=O)N[C@@H](Cc1c[nH]c2ccccc12)C(=O)N[C@@H](CC(C)C)C(=O)N[C@H](C(=O)N[C@@H](CCC(N)=O)C(=O)N[C@H](C(=O)N[C@@H](CCCCN)C(=O)N[C@H](C(=O)N[C@H](C(=O)N[C@@H](CCCCN)C(=O)O)[C@@H](C)O)[C@@H](C)CC)[C@@H](C)O)[C@@H](C)CC) [Compound no. 18]
92 | 1 | Ac-H[Aib]DGTFISDYSK([γGlu-Palmitoyl])[Aib]LDNLAARDFINWLIQTKITK-OH (SMILES CCCCCCCCCCCCCCCC(=O)N[C@@H](CCC(=O)NCCCC[C@H](NC(=O)[C@H](CO)NC(=O)[C@H](Cc1ccc(O)cc1)NC(=O)[C@H](CC(=O)O)NC(=O)[C@H](CO)NC(=O)[C@@H](NC(=O)[C@H](Cc1ccccc1)NC(=O)[C@@H](NC(=O)CNC(=O)[C@H](CC(=O)O)NC(=O)C(C)(C)NC(=O)[C@H](Cc1c[nH]cn1)NC(C)=O)[C@@H](C)O)[C@@H](C)CC)C(=O)NC(C)(C)C(=O)N[C@@H](CC(C)C)C(=O)N[C@@H](CC(=O)O)C(=O)N[C@@H](CC(N)=O)C(=O)N[C@@H](CC(C)C)C(=O)N[C@@H](C)C(=O)N[C@@H](C)C(=O)N[C@@H](CCCNC(=N)N)C(=O)N[C@@H](CC(=O)O)C(=O)N[C@@H](Cc1ccccc1)C(=O)N[C@H](C(=O)N[C@@H](CC(N)=O)C(=O)N[C@@H](Cc1c[nH]c2ccccc12)C(=O)N[C@@H](CC(C)C)C(=O)N[C@H](C(=O)N[C@@H](CCC(N)=O)C(=O)N[C@H](C(=O)N[C@@H](CCCCN)C(=O)N[C@H](C(=O)N[C@H](C(=O)N[C@@H](CCCCN)C(=O)O)[C@@H](C)O)[C@@H](C)CC)[C@@H](C)O)[C@@H](C)CC)[C@@H](C)CC)C(=O)O) [Compound no. 36]
